# Data from paper PMC10786891, “Massively parallel profiling of RNA-targeting CRISPR-Cas13d”.
# Positions count from the first letter of the chain named. Names may count otherwise.
# T1: EsCas13d, nuclease-dead (Eubacterium siraeum, UniProt B0MS50, R295A;H300A;R849A;H854A)
# T1 sequence: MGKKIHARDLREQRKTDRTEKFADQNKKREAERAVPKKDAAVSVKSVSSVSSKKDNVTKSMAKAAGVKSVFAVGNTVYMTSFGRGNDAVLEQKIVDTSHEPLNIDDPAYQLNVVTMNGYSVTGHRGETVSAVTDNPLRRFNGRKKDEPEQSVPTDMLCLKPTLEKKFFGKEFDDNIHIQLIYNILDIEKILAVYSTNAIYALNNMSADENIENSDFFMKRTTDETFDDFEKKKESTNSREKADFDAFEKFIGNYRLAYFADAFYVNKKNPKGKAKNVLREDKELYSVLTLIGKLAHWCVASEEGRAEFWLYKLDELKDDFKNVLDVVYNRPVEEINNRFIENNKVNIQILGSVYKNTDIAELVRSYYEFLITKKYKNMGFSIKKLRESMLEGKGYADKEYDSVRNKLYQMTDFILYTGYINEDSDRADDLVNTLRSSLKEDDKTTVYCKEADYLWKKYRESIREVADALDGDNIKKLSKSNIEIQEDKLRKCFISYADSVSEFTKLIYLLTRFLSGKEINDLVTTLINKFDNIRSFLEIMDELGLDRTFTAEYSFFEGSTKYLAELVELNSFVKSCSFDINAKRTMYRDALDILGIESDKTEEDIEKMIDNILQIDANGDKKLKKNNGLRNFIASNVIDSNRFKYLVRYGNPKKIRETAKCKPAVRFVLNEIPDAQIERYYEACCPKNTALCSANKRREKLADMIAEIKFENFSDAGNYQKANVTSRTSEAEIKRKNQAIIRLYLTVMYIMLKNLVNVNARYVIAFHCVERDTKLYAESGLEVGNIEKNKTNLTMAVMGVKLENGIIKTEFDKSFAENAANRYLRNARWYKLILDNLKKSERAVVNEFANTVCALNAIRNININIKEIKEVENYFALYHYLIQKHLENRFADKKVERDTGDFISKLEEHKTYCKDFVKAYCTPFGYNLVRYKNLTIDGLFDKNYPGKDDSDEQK
# B1: target 1 insU 3' of 12,insU 3' of 12 (mixed)
# RNA 1: CACCCGUGCAAAAAUGCAGGGGUCUAAAACUGAGCGGAUAACCUCUCUAUGG
# RNA 2: GGGAAUGGAUCCACAUCUACGAAUUCGUACCAUAGAGAGGUUUUAUCCGCUCACCGAGAUCGGAAGAGCACACGU
# B2: target 1 C2U,A14C (mixed)
# RNA 1: B1 RNA 1
# RNA 2: GGGAAUGGAUCCACAUCUACGAAUUCGUACCAUAGAGCGGUUAUCCGCUUACCGAGAUCGGAAGAGCACACGU
# B3: target 1 insG 3' of 9,insA 3' of 6 (mixed)
# RNA 1: B1 RNA 1
# RNA 2: B1 RNA 2 with U43A, U44G, A45U, U46C, C48A
# B4: target 1 A14U,G15A (mixed)
# RNA 1: B1 RNA 1
# RNA 2: B2 RNA 2 with G37A, C38U, U50C
# B5: target 1 del3,del11 (mixed)
# RNA 1: B1 RNA 1
# RNA 2: GGGAAUGGAUCCACAUCUACGAAUUCGUACCAUAGAGAGGUAUCCGCCACCGAGAUCGGAAGAGCACACGU
# B6: target 2 MT 5'PFS ACC 3'PFS UCC (mixed)
# RNA 1: CACCCGUGCAAAAUUGCAGGGGUCUAAAACCUUCUCCAAAUUGUUUCAUCCU
# RNA 2: GGGAAUGGAUCCACAUCUACGAAUUCACCAGGAUGAAACAAUUUGGAGAAGUCCAGAUCGGAAGAGCACACGU
# B7: target 2 MT 5'PFS GCC 3'PFS CUG (mixed)
# RNA 1: B6 RNA 1
# RNA 2: B6 RNA 2 with A27G, U52C, C53U, C54G
# B8: target 2 MT 5'PFS GGG 3'PFS CAU (mixed)
# RNA 1: B6 RNA 1
# RNA 2: B6 RNA 2 with A27G, C28G, C29G, U52C, C53A, C54U
# B9: target 2 MT 5'PFS GAG 3'PFS AGU (mixed)
# RNA 1: B6 RNA 1
# RNA 2: B6 RNA 2 with A27G, C28A, C29G, U52A, C53G, C54U
# B10: target 2 MT 5'PFS GCC 3'PFS CUA (mixed)
# RNA 1: B6 RNA 1
# RNA 2: B6 RNA 2 with A27G, U52C, C53U, C54A
# B11: target 2 MT 5'PFS UCG 3'PFS CCA (mixed)
# RNA 1: B6 RNA 1
# RNA 2: B6 RNA 2 with A27U, C29G, U52C, C54A
# B12: target 2 MT 5'PFS GGA 3'PFS CAC (mixed)
# RNA 1: B6 RNA 1
# RNA 2: B6 RNA 2 with A27G, C28G, C29A, U52C, C53A
# B13: target 2 MT 5'PFS UUC 3'PFS ACA (mixed)
# RNA 1: B6 RNA 1
# RNA 2: B6 RNA 2 with A27U, C28U, U52A, C54A
# B14: target 2 MT 5'PFS GAG 3'PFS CGA (mixed)
# RNA 1: B6 RNA 1
# RNA 2: B6 RNA 2 with A27G, C28A, C29G, U52C, C53G, C54A
# B15: target 2 MT 5'PFS CAG 3'PFS CAA (mixed)
# RNA 1: B6 RNA 1
# RNA 2: B6 RNA 2 with A27C, C28A, C29G, U52C, C53A, C54A
# B16: target 2 MT 5'PFS GGA 3'PFS UAG (mixed)
# RNA 1: B6 RNA 1
# RNA 2: B6 RNA 2 with A27G, C28G, C29A, C53A, C54G
# B17: target 2 MT 5'PFS GCC 3'PFS CUU (mixed)
# RNA 1: B6 RNA 1
# RNA 2: B6 RNA 2 with A27G, U52C, C53U, C54U
# B18: target 2 MT 5'PFS GUA 3'PFS UGU (mixed)
# RNA 1: B6 RNA 1
# RNA 2: B6 RNA 2 with A27G, C28U, C29A, C53G, C54U
# B19: target 2 MT 5'PFS UUC 3'PFS ACC (mixed)
# RNA 1: B6 RNA 1
# RNA 2: B6 RNA 2 with A27U, C28U, U52A
# B20: target 2 MT 5'PFS GGA 3'PFS CAG (mixed)
# RNA 1: B6 RNA 1
# RNA 2: B6 RNA 2 with A27G, C28G, C29A, U52C, C53A, C54G
# B21: target 2 MT 5'PFS GAG 3'PFS CGC (mixed)
# RNA 1: B6 RNA 1
# RNA 2: B6 RNA 2 with A27G, C28A, C29G, U52C, C53G
# B22: target 2 MT 5'PFS CAG 3'PFS CAC (mixed)
# RNA 1: B6 RNA 1
# RNA 2: B6 RNA 2 with A27C, C28A, C29G, U52C, C53A
# B23: target 2 MT 5'PFS CGC 3'PFS AGU (mixed)
# RNA 1: B6 RNA 1
# RNA 2: B6 RNA 2 with A27C, C28G, U52A, C53G, C54U
# B24: target 2 MT 5'PFS CGA 3'PFS UUU (mixed)
# RNA 1: B6 RNA 1
# RNA 2: B6 RNA 2 with A27C, C28G, C29A, C53U, C54U
# B25: target 2 MT 5'PFS GGA 3'PFS UAU (mixed)
# RNA 1: B6 RNA 1
# RNA 2: B6 RNA 2 with A27G, C28G, C29A, C53A, C54U
# B26: target 2 MT 5'PFS GGA 3'PFS UAC (mixed)
# RNA 1: B6 RNA 1
# RNA 2: B6 RNA 2 with A27G, C28G, C29A, C53A
# B27: target 2 MT 5'PFS GGG 3'PFS CAA (mixed)
# RNA 1: B6 RNA 1
# RNA 2: B6 RNA 2 with A27G, C28G, C29G, U52C, C53A, C54A
# B28: target 2 MT 5'PFS GCC 3'PFS CUC (mixed)
# RNA 1: B6 RNA 1
# RNA 2: B6 RNA 2 with A27G, U52C, C53U
# B29: target 2 MT 5'PFS CGA 3'PFS CUA (mixed)
# RNA 1: B6 RNA 1
# RNA 2: B6 RNA 2 with A27C, C28G, C29A, U52C, C53U, C54A
# B30: target 2 MT 5'PFS GGG 3'PFS CAG (mixed)
# RNA 1: B6 RNA 1
# RNA 2: B6 RNA 2 with A27G, C28G, C29G, U52C, C53A, C54G
# B31: target 2 MT 5'PFS GGG 3'PFS CAC (mixed)
# RNA 1: B6 RNA 1
# RNA 2: B6 RNA 2 with A27G, C28G, C29G, U52C, C53A
# B32: target 2 MT 5'PFS GAG 3'PFS CGG (mixed)
# RNA 1: B6 RNA 1
# RNA 2: B6 RNA 2 with A27G, C28A, C29G, U52C, C53G, C54G
# B33: target 2 MT 5'PFS CAG 3'PFS CAG (mixed)
# RNA 1: B6 RNA 1
# RNA 2: B6 RNA 2 with A27C, C28A, C29G, U52C, C53A, C54G
# B34: target 2 MT 5'PFS UAG 3'PFS UCC (mixed)
# RNA 1: B6 RNA 1
# RNA 2: B6 RNA 2 with A27U, C28A, C29G
# B35: target 2 MT 5'PFS GGA 3'PFS UAA (mixed)
# RNA 1: B6 RNA 1
# RNA 2: B6 RNA 2 with A27G, C28G, C29A, C53A, C54A
# B36: target 2 MT 5'PFS GGA 3'PFS CAA (mixed)
# RNA 1: B6 RNA 1
# RNA 2: B6 RNA 2 with A27G, C28G, C29A, U52C, C53A, C54A
# B37: target 2 MT 5'PFS GGA 3'PFS CAU (mixed)
# RNA 1: B6 RNA 1
# RNA 2: B6 RNA 2 with A27G, C28G, C29A, U52C, C53A, C54U
# Molecular target: T1, EsCas13d, nuclease-dead
# Test: crRNA (strand 1, pre-loaded); Mg2+; 40 mM Tris-HCl pH 7.5, 150 mM NaCl, 6 mM MgCl2, 1 mM DTT, 0.1% Tween-20, 0.2 mg/ml BSA; 25 C; 10 min per concentration, then washed
# Conditions: tags: His6-TwinStrep-SUMO cleaved; N-terminal SNAP kept (SNAP-Surface 488); label: 3' end held by stalled T7 RNA polymerase
row,Binder,Kd
1,B1,10.1 ± 0.8 nM
2,B2,80 ± 13 nM
3,B3,13.4 ± 0.7 nM
4,B4,64 ± 10 nM
5,B5,66 ± 16 nM
6,B6,5.5 ± 0.6 nM
7,B7,12.7 ± 2.1 nM
8,B8,8 ± 0.8 nM
9,B9,9.1 ± 1.1 nM
10,B10,11.7 ± 2.4 nM
11,B11,31 ± 11 nM
12,B12,9.4 ± 1 nM
13,B13,~21 nM
14,B14,4.9 ± 0.4 nM
15,B15,6.6 ± 2.7 nM
16,B16,8.7 ± 0.7 nM
17,B17,10.5 ± 1.9 nM
18,B18,15.2 ± 1.2 nM
19,B19,~16 nM

row,Binder,Kd
1,B20,11.5 ± 1.5 nM
2,B21,6.4 ± 0.4 nM
3,B22,5.6 ± 1.6 nM
4,B23,4.3 ± 0.6 nM
5,B24,9.2 ± 1.7 nM
6,B25,9.1 ± 1.1 nM
7,B26,16.1 ± 2.7 nM
8,B27,4.9 ± 0.5 nM
9,B28,18.3 ± 2.3 nM
10,B29,8.3 ± 1.3 nM
11,B30,9 ± 0.8 nM
12,B31,9.4 ± 1 nM
13,B32,5.8 ± 0.4 nM
14,B33,7.2 ± 1.2 nM
15,B34,7.9 ± 0.8 nM
16,B35,5.6 ± 0.9 nM
17,B36,6.7 ± 1.2 nM
18,B37,9.1 ± 1.1 nM
